Values of other authors, collected in publication PMC3616122.

Biological target: Cul3 NTD (Homo sapiens) (UniProt Q13618)
Assay: ITC

Chain of Cul3 NTD (Homo sapiens) (Q13618 20-381): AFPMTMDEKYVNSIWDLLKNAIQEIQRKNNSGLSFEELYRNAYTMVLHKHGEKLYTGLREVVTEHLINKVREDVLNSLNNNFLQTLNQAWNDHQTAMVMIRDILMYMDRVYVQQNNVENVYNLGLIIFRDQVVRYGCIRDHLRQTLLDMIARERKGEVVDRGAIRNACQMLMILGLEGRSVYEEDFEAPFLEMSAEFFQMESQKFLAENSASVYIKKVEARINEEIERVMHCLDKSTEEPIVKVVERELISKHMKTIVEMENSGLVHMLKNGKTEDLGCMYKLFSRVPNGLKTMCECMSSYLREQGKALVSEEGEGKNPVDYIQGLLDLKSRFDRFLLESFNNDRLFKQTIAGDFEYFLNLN
Chain of SPOP BTB-BACK (O43791 177-359): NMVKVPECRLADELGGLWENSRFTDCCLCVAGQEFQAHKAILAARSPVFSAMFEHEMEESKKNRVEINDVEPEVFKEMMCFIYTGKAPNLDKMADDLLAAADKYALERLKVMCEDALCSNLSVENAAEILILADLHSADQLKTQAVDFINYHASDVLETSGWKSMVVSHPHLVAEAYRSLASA
Chain of SPOP BTB (O43791 170-300): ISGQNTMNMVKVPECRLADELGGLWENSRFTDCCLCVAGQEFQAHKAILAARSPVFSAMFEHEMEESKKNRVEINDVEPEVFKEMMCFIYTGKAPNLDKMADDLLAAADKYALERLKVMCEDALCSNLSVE

Kd	Substance
1000 µM	SPOP BTB (from UniProt O43791)
0.013 µM	SPOP BTB-BACK (from UniProt O43791)
